Reference: publication doi:10.1101/131276
Values belong to the substance of their own block, whether it stands above or below them.

Tests used:
Assay in all cases: non-reducing SDS-PAGE and Western blot
[1] = target: Gbb15 made by cleavage at the atypical S0 site (from gbb mS1 or gbb mNSmS1), HA-tagged (Drosophila)
[2] = target: Gbb38 from gbb mS1, HA-tagged (Drosophila)
[3] = target: proGbb, the uncleaved Gbb proprotein from gbb mNSmS1, HA-tagged (Drosophila)
[4] = target: proGbb, the uncleaved Gbb proprotein from gbb mNSmS1mS0, HA-tagged (Drosophila)

Sequence of Gbb15 made by cleavage at the atypical S0 site (from gbb mS1 or gbb mNSmS1), HA-tagged (ligand) (P27091 37-455): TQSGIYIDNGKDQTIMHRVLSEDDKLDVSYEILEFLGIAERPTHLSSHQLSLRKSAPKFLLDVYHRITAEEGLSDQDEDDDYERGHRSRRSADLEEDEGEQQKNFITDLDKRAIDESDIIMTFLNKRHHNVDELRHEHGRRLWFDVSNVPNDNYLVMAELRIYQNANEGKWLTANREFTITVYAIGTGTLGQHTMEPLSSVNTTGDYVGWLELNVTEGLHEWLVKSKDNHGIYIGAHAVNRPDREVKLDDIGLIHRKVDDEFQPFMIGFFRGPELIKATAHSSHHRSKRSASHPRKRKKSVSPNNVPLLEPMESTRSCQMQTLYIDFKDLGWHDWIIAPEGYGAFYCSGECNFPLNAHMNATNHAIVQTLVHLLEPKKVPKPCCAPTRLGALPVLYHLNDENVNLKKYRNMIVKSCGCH

stoichiometry N [1]: 2
Substance: Gbb15 made by cleavage at the atypical S0 site (from gbb mS1 or gbb mNSmS1), HA-tagged (ligand)

stoichiometry N [2]: 2
Substance: Gbb38 from gbb mS1, HA-tagged (ligand)

stoichiometry N [3]: 2
Substance: proGbb, the uncleaved Gbb proprotein from gbb mNSmS1, HA-tagged (natural protein)

stoichiometry N [4]: 2
Substance: proGbb, the uncleaved Gbb proprotein from gbb mNSmS1mS0, HA-tagged (natural protein)
